B1: Speckle-type POZ protein (Homo sapiens), O43791 (parent)
chain: MSRVPSPPPPAEMSSGPVAESWCYTQIKVVKFSYMWTINNFSFCREEMGEVIKSSTFSSGANDKLKWCLRVNPKGLDEESKDYLSLYLLLVSCPKSEVRAKFKFSILNAKGEETKAMESQRAYRFVQGKDWGFKKFIRRDFLLDEANGLLPDDKLTLFCEVSVVQDSVNISGQNTMNMVKVPECRLADELGGLWENSRFTDCCLCVAGQEFQAHKAILAARSPVFSAMFEHEMEESKKNRVEINDVEPEVFKEMMCFIYTGKAPNLDKMADDLLAAADKYALERLKVMCEDALCSNLSVENAAEILILADLHSADQLKTQAVDFINYHASDVLETSGWKSMVVSHPHLVAEAYRSLASAQCPFLGPPRKRLKQS

Variants of: B1
Conditions: with gnaq_human GNAQ

| Variant | effect of a mutation on the interaction |
| --- | --- |
| MSRVPSPPPPAEMSSGPVAESWCYTQIKVVKFSYMWTINNFSFCREEMGEVIKSSTFSSGANDKLKWCLRVNPKGLDEESKDYLSLCLLLVSCPKSEVRAKFKFSILNAKGEETKAMESQRAYRFVQGKDWGFKKFIRRDFLLDEANGLLPDDKLTLFCEVSVVQDSVNISGQNTMNMVKVPECRLADELGGLWENSRFTDCCLCVAGQEFQAHKAILAARSPVFSAMFEHEMEESKKNRVEINDVEPEVFKEMMCFIYTGKAPNLDKMADDLLAAADKYALERLKVMCEDALCSNLSVENAAEILILADLHSADQLKTQAVDFINYHASDVLETSGWKSMVVSHPHLVAEAYRSLASAQCPFLGPPRKRLKQS [Y87C] | with no effect |

Variants of: B1
Conditions: with grm1_human GRM1, Q13255
grm1_human GRM1, Q13255, sequence (Q13255 whole entry, looked up): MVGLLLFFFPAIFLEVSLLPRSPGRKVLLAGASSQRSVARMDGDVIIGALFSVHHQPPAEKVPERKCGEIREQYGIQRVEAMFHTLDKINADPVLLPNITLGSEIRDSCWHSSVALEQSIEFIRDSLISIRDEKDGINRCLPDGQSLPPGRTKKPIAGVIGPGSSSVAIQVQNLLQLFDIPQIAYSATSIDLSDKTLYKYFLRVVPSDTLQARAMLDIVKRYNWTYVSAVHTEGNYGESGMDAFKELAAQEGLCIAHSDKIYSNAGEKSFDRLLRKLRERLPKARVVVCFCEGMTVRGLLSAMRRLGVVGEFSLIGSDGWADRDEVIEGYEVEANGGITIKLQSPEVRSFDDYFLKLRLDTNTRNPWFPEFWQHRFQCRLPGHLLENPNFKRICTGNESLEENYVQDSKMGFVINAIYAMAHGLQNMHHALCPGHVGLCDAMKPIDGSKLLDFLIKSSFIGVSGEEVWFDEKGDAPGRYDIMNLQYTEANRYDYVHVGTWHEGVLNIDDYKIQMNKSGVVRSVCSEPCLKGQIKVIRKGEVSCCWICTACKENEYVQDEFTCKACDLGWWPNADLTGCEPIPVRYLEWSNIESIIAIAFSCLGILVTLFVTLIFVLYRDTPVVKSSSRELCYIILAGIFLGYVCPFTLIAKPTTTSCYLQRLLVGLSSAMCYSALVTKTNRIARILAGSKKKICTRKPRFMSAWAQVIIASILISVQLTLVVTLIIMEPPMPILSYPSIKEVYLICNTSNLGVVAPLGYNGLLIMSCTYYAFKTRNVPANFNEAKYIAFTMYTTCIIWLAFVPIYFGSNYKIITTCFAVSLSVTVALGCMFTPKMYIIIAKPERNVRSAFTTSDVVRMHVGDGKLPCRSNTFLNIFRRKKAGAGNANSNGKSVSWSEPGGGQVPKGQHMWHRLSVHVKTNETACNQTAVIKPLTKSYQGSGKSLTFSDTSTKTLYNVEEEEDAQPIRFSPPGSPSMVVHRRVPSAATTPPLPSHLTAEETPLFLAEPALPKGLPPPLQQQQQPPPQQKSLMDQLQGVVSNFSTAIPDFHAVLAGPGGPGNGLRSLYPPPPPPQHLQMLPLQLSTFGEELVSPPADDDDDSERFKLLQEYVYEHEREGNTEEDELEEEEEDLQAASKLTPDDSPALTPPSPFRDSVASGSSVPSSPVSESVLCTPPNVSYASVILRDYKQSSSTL

| Variant | effect of a mutation on the interaction |
| --- | --- |
| MSRVPSPPPPAEMSSGPVAESWCYTQIKVVKFSYMWTINNFSFCREEMGEVIKSSTFSSGANDKLKWCLRVNPKGLDEESKDYLSLCLLLVSCPKSEVRAKFKFSILNAKGEETKAMESQRAYRFVQGKDWGFKKFIRRDFLLDEANGLLPDDKLTLFCEVSVVQDSVNISGQNTMNMVKVPECRLADELGGLWENSRFTDCCLCVAGQEFQAHKAILAARSPVFSAMFEHEMEESKKNRVEINDVEPEVFKEMMCFIYTGKAPNLDKMADDLLAAADKYALERLKVMCEDALCSNLSVENAAEILILADLHSADQLKTQAVDFINYHASDVLETSGWKSMVVSHPHLVAEAYRSLASAQCPFLGPPRKRLKQS [Y87C] | with no effect |

Variants of: B1
Conditions: with grm3_human GRM3, Q14832
grm3_human GRM3, Q14832, sequence (Q14832 whole entry, looked up): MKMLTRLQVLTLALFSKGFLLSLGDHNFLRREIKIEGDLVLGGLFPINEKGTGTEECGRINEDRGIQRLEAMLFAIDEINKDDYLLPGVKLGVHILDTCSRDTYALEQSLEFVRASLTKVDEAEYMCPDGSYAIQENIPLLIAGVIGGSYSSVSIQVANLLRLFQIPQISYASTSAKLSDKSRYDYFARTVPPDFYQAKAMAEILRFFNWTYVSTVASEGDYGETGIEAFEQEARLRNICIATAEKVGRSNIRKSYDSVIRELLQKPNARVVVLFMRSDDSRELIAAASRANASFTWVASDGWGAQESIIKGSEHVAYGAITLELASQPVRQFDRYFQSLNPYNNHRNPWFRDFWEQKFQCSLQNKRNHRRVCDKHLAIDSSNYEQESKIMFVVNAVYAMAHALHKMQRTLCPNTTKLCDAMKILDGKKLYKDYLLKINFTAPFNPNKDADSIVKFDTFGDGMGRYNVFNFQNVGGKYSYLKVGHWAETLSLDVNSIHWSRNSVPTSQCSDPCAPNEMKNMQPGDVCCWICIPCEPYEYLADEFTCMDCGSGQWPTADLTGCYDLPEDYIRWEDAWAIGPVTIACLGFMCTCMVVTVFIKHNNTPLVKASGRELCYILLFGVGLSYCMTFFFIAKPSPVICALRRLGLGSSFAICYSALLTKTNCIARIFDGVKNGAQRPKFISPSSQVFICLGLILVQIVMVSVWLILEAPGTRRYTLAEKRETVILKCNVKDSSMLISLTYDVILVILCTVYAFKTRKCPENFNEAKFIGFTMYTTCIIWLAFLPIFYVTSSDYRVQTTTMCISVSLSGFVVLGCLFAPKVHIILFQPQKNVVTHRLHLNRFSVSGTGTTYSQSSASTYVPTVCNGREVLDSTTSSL

| Variant | effect of a mutation on the interaction |
| --- | --- |
| MSRVPSPPPPAEMSSGPVAESWCYTQIKVVKFSYMWTINNFSFCREEMGEVIKSSTFSSGANDKLKWCLRVNPKGLDEESKDYLSLCLLLVSCPKSEVRAKFKFSILNAKGEETKAMESQRAYRFVQGKDWGFKKFIRRDFLLDEANGLLPDDKLTLFCEVSVVQDSVNISGQNTMNMVKVPECRLADELGGLWENSRFTDCCLCVAGQEFQAHKAILAARSPVFSAMFEHEMEESKKNRVEINDVEPEVFKEMMCFIYTGKAPNLDKMADDLLAAADKYALERLKVMCEDALCSNLSVENAAEILILADLHSADQLKTQAVDFINYHASDVLETSGWKSMVVSHPHLVAEAYRSLASAQCPFLGPPRKRLKQS [Y87C] | with no effect |

Variants of: B1
Conditions: with gsk3b_human GSK3B

| Variant | effect of a mutation on the interaction |
| --- | --- |
| MSRVPSPPPPAEMSSGPVAESWCYTQIKVVKFSYMWTINNFSFCREEMGEVIKSSTFSSGANDKLKWCLRVNPKGLDEESKDYLSLCLLLVSCPKSEVRAKFKFSILNAKGEETKAMESQRAYRFVQGKDWGFKKFIRRDFLLDEANGLLPDDKLTLFCEVSVVQDSVNISGQNTMNMVKVPECRLADELGGLWENSRFTDCCLCVAGQEFQAHKAILAARSPVFSAMFEHEMEESKKNRVEINDVEPEVFKEMMCFIYTGKAPNLDKMADDLLAAADKYALERLKVMCEDALCSNLSVENAAEILILADLHSADQLKTQAVDFINYHASDVLETSGWKSMVVSHPHLVAEAYRSLASAQCPFLGPPRKRLKQS [Y87C] | with no effect |

Variants of: B1
Conditions: with gtpb4_human GTPBP4, Q9BZE4

| Variant | effect of a mutation on the interaction |
| --- | --- |
| MSRVPSPPPPAEMSSGPVAESWCYTQIKVVKFSYMWTINNFSFCREEMGEVIKSSTFSSGANDKLKWCLRVNPKGLDEESKDYLSLCLLLVSCPKSEVRAKFKFSILNAKGEETKAMESQRAYRFVQGKDWGFKKFIRRDFLLDEANGLLPDDKLTLFCEVSVVQDSVNISGQNTMNMVKVPECRLADELGGLWENSRFTDCCLCVAGQEFQAHKAILAARSPVFSAMFEHEMEESKKNRVEINDVEPEVFKEMMCFIYTGKAPNLDKMADDLLAAADKYALERLKVMCEDALCSNLSVENAAEILILADLHSADQLKTQAVDFINYHASDVLETSGWKSMVVSHPHLVAEAYRSLASAQCPFLGPPRKRLKQS [Y87C] | with no effect |

Variants of: B1
Conditions: with h33_human H3-3A

| Variant | effect of a mutation on the interaction |
| --- | --- |
| MSRVPSPPPPAEMSSGPVAESWCYTQIKVVKFSYMWTINNFSFCREEMGEVIKSSTFSSGANDKLKWCLRVNPKGLDEESKDYLSLCLLLVSCPKSEVRAKFKFSILNAKGEETKAMESQRAYRFVQGKDWGFKKFIRRDFLLDEANGLLPDDKLTLFCEVSVVQDSVNISGQNTMNMVKVPECRLADELGGLWENSRFTDCCLCVAGQEFQAHKAILAARSPVFSAMFEHEMEESKKNRVEINDVEPEVFKEMMCFIYTGKAPNLDKMADDLLAAADKYALERLKVMCEDALCSNLSVENAAEILILADLHSADQLKTQAVDFINYHASDVLETSGWKSMVVSHPHLVAEAYRSLASAQCPFLGPPRKRLKQS [Y87C] | with no effect |

Variants of: B1
Conditions: with hdac1_human HDAC1, Q13547
hdac1_human HDAC1, Q13547, sequence (Q13547 whole entry): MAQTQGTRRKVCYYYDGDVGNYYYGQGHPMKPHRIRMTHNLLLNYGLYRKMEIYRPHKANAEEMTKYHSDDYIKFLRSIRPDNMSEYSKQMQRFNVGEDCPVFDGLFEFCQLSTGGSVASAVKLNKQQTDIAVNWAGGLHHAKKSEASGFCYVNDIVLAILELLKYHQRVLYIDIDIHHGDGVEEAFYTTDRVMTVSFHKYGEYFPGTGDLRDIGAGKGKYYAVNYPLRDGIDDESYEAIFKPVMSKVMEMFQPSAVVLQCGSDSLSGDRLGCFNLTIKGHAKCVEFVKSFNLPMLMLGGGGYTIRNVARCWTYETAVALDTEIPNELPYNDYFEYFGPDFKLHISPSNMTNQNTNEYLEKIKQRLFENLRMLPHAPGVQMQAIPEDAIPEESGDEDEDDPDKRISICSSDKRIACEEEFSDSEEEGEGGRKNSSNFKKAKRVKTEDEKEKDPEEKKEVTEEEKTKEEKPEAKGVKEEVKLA

| Variant | effect of a mutation on the interaction |
| --- | --- |
| MSRVPSPPPPAEMSSGPVAESWCYTQIKVVKFSYMWTINNFSFCREEMGEVIKSSTFSSGANDKLKWCLRVNPKGLDEESKDYLSLCLLLVSCPKSEVRAKFKFSILNAKGEETKAMESQRAYRFVQGKDWGFKKFIRRDFLLDEANGLLPDDKLTLFCEVSVVQDSVNISGQNTMNMVKVPECRLADELGGLWENSRFTDCCLCVAGQEFQAHKAILAARSPVFSAMFEHEMEESKKNRVEINDVEPEVFKEMMCFIYTGKAPNLDKMADDLLAAADKYALERLKVMCEDALCSNLSVENAAEILILADLHSADQLKTQAVDFINYHASDVLETSGWKSMVVSHPHLVAEAYRSLASAQCPFLGPPRKRLKQS [Y87C] | with no effect |

Variants of: B1
Conditions: with hdac3_human HDAC3, O15379
hdac3_human HDAC3, O15379, sequence (O15379 whole entry): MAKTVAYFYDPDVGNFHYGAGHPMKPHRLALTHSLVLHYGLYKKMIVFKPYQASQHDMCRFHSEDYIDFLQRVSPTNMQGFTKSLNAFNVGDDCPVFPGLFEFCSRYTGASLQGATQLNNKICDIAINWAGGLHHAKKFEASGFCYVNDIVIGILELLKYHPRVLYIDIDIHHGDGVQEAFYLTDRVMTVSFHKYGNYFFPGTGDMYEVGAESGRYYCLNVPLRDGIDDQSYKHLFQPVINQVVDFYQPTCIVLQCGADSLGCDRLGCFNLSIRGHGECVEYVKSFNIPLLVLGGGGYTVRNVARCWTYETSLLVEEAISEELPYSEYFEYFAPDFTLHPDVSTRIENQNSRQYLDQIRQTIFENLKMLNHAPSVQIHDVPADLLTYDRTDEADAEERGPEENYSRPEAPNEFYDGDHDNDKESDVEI

| Variant | effect of a mutation on the interaction |
| --- | --- |
| MSRVPSPPPPAEMSSGPVAESWCYTQIKVVKFSYMWTINNFSFCREEMGEVIKSSTFSSGANDKLKWCLRVNPKGLDEESKDYLSLCLLLVSCPKSEVRAKFKFSILNAKGEETKAMESQRAYRFVQGKDWGFKKFIRRDFLLDEANGLLPDDKLTLFCEVSVVQDSVNISGQNTMNMVKVPECRLADELGGLWENSRFTDCCLCVAGQEFQAHKAILAARSPVFSAMFEHEMEESKKNRVEINDVEPEVFKEMMCFIYTGKAPNLDKMADDLLAAADKYALERLKVMCEDALCSNLSVENAAEILILADLHSADQLKTQAVDFINYHASDVLETSGWKSMVVSHPHLVAEAYRSLASAQCPFLGPPRKRLKQS [Y87C] | with no effect |

Variants of: B1
Conditions: with hgf_human HGF

| Variant | effect of a mutation on the interaction |
| --- | --- |
| MSRVPSPPPPAEMSSGPVAESWCYTQIKVVKFSYMWTINNFSFCREEMGEVIKSSTFSSGANDKLKWCLRVNPKGLDEESKDYLSLCLLLVSCPKSEVRAKFKFSILNAKGEETKAMESQRAYRFVQGKDWGFKKFIRRDFLLDEANGLLPDDKLTLFCEVSVVQDSVNISGQNTMNMVKVPECRLADELGGLWENSRFTDCCLCVAGQEFQAHKAILAARSPVFSAMFEHEMEESKKNRVEINDVEPEVFKEMMCFIYTGKAPNLDKMADDLLAAADKYALERLKVMCEDALCSNLSVENAAEILILADLHSADQLKTQAVDFINYHASDVLETSGWKSMVVSHPHLVAEAYRSLASAQCPFLGPPRKRLKQS [Y87C] | with no effect |

Variants of: B1
Conditions: with h31_human H3C1, P68431

| Variant | effect of a mutation on the interaction |
| --- | --- |
| MSRVPSPPPPAEMSSGPVAESWCYTQIKVVKFSYMWTINNFSFCREEMGEVIKSSTFSSGANDKLKWCLRVNPKGLDEESKDYLSLCLLLVSCPKSEVRAKFKFSILNAKGEETKAMESQRAYRFVQGKDWGFKKFIRRDFLLDEANGLLPDDKLTLFCEVSVVQDSVNISGQNTMNMVKVPECRLADELGGLWENSRFTDCCLCVAGQEFQAHKAILAARSPVFSAMFEHEMEESKKNRVEINDVEPEVFKEMMCFIYTGKAPNLDKMADDLLAAADKYALERLKVMCEDALCSNLSVENAAEILILADLHSADQLKTQAVDFINYHASDVLETSGWKSMVVSHPHLVAEAYRSLASAQCPFLGPPRKRLKQS [Y87C] | with no effect |

Variants of: B1
Conditions: with hlab_human HLA-B

| Variant | effect of a mutation on the interaction |
| --- | --- |
| MSRVPSPPPPAEMSSGPVAESWCYTQIKVVKFSYMWTINNFSFCREEMGEVIKSSTFSSGANDKLKWCLRVNPKGLDEESKDYLSLCLLLVSCPKSEVRAKFKFSILNAKGEETKAMESQRAYRFVQGKDWGFKKFIRRDFLLDEANGLLPDDKLTLFCEVSVVQDSVNISGQNTMNMVKVPECRLADELGGLWENSRFTDCCLCVAGQEFQAHKAILAARSPVFSAMFEHEMEESKKNRVEINDVEPEVFKEMMCFIYTGKAPNLDKMADDLLAAADKYALERLKVMCEDALCSNLSVENAAEILILADLHSADQLKTQAVDFINYHASDVLETSGWKSMVVSHPHLVAEAYRSLASAQCPFLGPPRKRLKQS [Y87C] | with no effect |

Variants of: B1
Conditions: with hnf1a_human HNF1A

| Variant | effect of a mutation on the interaction |
| --- | --- |
| MSRVPSPPPPAEMSSGPVAESWCYTQIKVVKFSYMWTINNFSFCREEMGEVIKSSTFSSGANDKLKWCLRVNPKGLDEESKDYLSLCLLLVSCPKSEVRAKFKFSILNAKGEETKAMESQRAYRFVQGKDWGFKKFIRRDFLLDEANGLLPDDKLTLFCEVSVVQDSVNISGQNTMNMVKVPECRLADELGGLWENSRFTDCCLCVAGQEFQAHKAILAARSPVFSAMFEHEMEESKKNRVEINDVEPEVFKEMMCFIYTGKAPNLDKMADDLLAAADKYALERLKVMCEDALCSNLSVENAAEILILADLHSADQLKTQAVDFINYHASDVLETSGWKSMVVSHPHLVAEAYRSLASAQCPFLGPPRKRLKQS [Y87C] | with no effect |

Variants of: B1
Conditions: with igf1r_human IGF1R

| Variant | effect of a mutation on the interaction |
| --- | --- |
| MSRVPSPPPPAEMSSGPVAESWCYTQIKVVKFSYMWTINNFSFCREEMGEVIKSSTFSSGANDKLKWCLRVNPKGLDEESKDYLSLCLLLVSCPKSEVRAKFKFSILNAKGEETKAMESQRAYRFVQGKDWGFKKFIRRDFLLDEANGLLPDDKLTLFCEVSVVQDSVNISGQNTMNMVKVPECRLADELGGLWENSRFTDCCLCVAGQEFQAHKAILAARSPVFSAMFEHEMEESKKNRVEINDVEPEVFKEMMCFIYTGKAPNLDKMADDLLAAADKYALERLKVMCEDALCSNLSVENAAEILILADLHSADQLKTQAVDFINYHASDVLETSGWKSMVVSHPHLVAEAYRSLASAQCPFLGPPRKRLKQS [Y87C] | with no effect |

Variants of: B1
Conditions: with il7ra_human IL7R

| Variant | effect of a mutation on the interaction |
| --- | --- |
| MSRVPSPPPPAEMSSGPVAESWCYTQIKVVKFSYMWTINNFSFCREEMGEVIKSSTFSSGANDKLKWCLRVNPKGLDEESKDYLSLCLLLVSCPKSEVRAKFKFSILNAKGEETKAMESQRAYRFVQGKDWGFKKFIRRDFLLDEANGLLPDDKLTLFCEVSVVQDSVNISGQNTMNMVKVPECRLADELGGLWENSRFTDCCLCVAGQEFQAHKAILAARSPVFSAMFEHEMEESKKNRVEINDVEPEVFKEMMCFIYTGKAPNLDKMADDLLAAADKYALERLKVMCEDALCSNLSVENAAEILILADLHSADQLKTQAVDFINYHASDVLETSGWKSMVVSHPHLVAEAYRSLASAQCPFLGPPRKRLKQS [Y87C] | with no effect |

Variants of: B1
Conditions: with int12_human INTS12, Q96CB8
int12_human INTS12, Q96CB8, sequence (Q96CB8 whole entry): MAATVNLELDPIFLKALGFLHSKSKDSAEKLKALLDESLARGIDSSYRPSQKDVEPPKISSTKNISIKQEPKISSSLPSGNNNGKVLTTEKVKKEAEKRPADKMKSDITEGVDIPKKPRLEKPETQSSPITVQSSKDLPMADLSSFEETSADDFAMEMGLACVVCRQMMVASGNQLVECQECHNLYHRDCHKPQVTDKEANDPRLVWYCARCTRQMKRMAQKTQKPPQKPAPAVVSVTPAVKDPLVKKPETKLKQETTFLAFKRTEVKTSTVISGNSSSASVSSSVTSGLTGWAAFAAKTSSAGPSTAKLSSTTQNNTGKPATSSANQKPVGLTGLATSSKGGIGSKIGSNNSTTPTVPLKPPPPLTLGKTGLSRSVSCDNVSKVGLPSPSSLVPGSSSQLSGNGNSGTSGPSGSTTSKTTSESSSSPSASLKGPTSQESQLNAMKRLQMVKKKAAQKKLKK

| Variant | effect of a mutation on the interaction |
| --- | --- |
| MSRVPSPPPPAEMSSGPVAESWCYTQIKVVKFSYMWTINNFSFCREEMGEVIKSSTFSSGANDKLKWCLRVNPKGLDEESKDYLSLCLLLVSCPKSEVRAKFKFSILNAKGEETKAMESQRAYRFVQGKDWGFKKFIRRDFLLDEANGLLPDDKLTLFCEVSVVQDSVNISGQNTMNMVKVPECRLADELGGLWENSRFTDCCLCVAGQEFQAHKAILAARSPVFSAMFEHEMEESKKNRVEINDVEPEVFKEMMCFIYTGKAPNLDKMADDLLAAADKYALERLKVMCEDALCSNLSVENAAEILILADLHSADQLKTQAVDFINYHASDVLETSGWKSMVVSHPHLVAEAYRSLASAQCPFLGPPRKRLKQS [Y87C] | with no effect |

Reference: IntAct's records for PubMed 35512704
